Ends that are not written are not given here. * marks the point of attachment. Biotin = O=C1N[C@H]2[C@H](CS[C@H]2CCCCC(=O)*)N1
What was measured:
Experiment in all cases: peptide or protein array; E. coli proteome chip: purified His-tagged proteins printed in duplicate on Fullmoon slides, blocked with 1% BSA; 10 nM N-terminal biotinylated LfcinB with 1% BSA, room temperature, 1 h; detected with DyLight 649-labeled streptavidin, ratio to DyLight 549-labeled anti-His antibody; ProCAT normalisation, local cut-off; triplicate chips
Conditions in all cases: both partners purified
[1] = target: T1, RfaD (E. coli K-12, UniProt P67910 1-310)
T1 construct: RfaD, E. coli K-12
T1 sequence (looked up): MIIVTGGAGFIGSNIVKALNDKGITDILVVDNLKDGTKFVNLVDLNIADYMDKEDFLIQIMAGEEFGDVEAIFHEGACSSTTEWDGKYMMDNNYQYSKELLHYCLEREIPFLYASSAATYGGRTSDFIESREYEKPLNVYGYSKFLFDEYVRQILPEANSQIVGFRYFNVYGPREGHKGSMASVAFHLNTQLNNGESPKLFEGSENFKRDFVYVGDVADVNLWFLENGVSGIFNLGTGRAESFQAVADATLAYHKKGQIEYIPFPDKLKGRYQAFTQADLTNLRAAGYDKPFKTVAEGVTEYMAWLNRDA

[2] = target: T2, ArgH (E. coli K-12, UniProt P11447 1-457)
T2 construct: ArgH, E. coli K-12
T2 sequence (looked up): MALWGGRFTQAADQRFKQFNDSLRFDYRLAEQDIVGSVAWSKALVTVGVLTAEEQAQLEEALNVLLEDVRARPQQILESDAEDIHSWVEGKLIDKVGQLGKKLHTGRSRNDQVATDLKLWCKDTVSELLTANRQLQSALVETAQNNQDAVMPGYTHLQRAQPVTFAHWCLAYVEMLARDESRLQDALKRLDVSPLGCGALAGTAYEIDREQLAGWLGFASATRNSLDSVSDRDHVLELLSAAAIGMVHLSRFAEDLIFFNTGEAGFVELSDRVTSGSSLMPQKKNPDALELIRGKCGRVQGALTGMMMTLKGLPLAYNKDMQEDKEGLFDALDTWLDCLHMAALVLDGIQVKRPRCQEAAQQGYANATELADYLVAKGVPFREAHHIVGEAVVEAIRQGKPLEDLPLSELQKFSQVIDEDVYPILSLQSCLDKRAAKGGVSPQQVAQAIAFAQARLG

[3] = target: T3, RcsB (E. coli K-12, UniProt P0DMC7 1-216)
T3 construct: RcsB, E. coli K-12
T3 sequence (looked up): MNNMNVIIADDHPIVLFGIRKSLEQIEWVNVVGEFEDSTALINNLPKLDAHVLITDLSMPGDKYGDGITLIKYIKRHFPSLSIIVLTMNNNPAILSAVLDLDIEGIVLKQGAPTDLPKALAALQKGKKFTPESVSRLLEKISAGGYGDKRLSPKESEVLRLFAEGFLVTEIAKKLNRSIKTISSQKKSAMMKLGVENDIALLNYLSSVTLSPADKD

[4] = target: T4, RecC (E. coli K-12, UniProt P07648 1-1122)
T4 construct: RecC, E. coli K-12
T4 sequence (looked up): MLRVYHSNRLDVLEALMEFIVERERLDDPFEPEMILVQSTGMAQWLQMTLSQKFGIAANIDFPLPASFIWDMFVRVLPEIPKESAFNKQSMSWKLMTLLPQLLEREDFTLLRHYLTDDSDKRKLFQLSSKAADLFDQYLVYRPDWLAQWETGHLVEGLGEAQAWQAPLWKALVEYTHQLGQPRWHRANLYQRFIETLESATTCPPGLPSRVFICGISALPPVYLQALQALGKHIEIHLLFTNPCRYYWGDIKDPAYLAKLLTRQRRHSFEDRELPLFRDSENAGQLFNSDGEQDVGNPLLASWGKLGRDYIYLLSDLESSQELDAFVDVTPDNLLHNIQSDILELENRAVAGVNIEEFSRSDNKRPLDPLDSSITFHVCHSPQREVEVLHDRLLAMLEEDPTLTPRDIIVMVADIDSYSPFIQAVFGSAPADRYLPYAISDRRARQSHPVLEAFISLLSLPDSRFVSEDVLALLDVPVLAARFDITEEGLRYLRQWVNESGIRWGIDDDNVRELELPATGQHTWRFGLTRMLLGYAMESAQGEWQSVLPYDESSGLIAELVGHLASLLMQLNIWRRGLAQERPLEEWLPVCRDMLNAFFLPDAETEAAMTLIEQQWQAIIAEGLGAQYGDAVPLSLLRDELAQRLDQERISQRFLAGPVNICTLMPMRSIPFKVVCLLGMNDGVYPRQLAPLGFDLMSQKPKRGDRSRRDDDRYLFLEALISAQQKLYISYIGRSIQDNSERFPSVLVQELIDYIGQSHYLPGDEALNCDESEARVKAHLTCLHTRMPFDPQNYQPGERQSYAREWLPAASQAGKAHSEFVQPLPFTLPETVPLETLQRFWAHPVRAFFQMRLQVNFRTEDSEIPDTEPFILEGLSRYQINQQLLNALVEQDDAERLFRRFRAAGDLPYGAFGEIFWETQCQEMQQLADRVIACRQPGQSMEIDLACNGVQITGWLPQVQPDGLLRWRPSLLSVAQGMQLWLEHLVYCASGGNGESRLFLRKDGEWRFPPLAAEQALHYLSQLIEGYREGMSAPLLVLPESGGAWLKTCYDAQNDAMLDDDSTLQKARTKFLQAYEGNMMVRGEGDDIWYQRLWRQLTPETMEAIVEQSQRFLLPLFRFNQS

Measured: binding result

B1: N-terminal biotinylated Lactoferricin B (peptide, UniProt P24627 36-60, looked up)
peptide: Biotin-FKCRRWQWRMKKLGAPSITCVRRAF
modifications: ends and bridges not checked
notes: lactoferricin B (LfcinB), cationic antimicrobial peptide of 25 amino acids; also called biotinylated LfcinB; biotin-labeled LfcinB; source: bought: Kelowna Inc
binds: [1] | [2] | [3] | [4]

Source: publication PMC3229523, “Identification of Lactoferricin B Intracellular Targets Using an Escherichia coli Proteome Chip” (PLoS ONE, 2011)
